Assay results: US20030059436A1, “Band 3 antigenic peptides, malaria polypeptides and uses thereof” (priority 2001, published 2003)
Ends that are not written are not given here.

Tests used:
[1] = biological target: mouse erythroid Band 3 protein on wild-type mouse RBCs (mouse) (UniProt P04919); assay: 32P-MSP119 on intact Band 3 (-/-) mouse RBCs against untreated wild-type mouse RBCs in suspension
[2] = biological target: mouse erythroid Band 3 protein on wild-type mouse RBCs (mouse) (UniProt P04919); assay: 32P-MSP119 on intact mouse RBCs in suspension; RBCs treated with chymotrypsin 40 min, against untreated RBCs
[3] = biological target: human erythroid Band 3 protein (Anion Exchanger 1) on human RBCs (human) (UniProt P02730); assay: 32P-MSP119 on intact human RBCs in suspension; RBCs treated with chymotrypsin 40 min, against untreated RBCs
[4] = biological target: human erythroid Band 3 protein (Anion Exchanger 1) on human RBCs (human) (UniProt P02730); assay: 32P-MSP119 on intact human RBCs in suspension; RBCs treated with neuraminidase, against untreated RBCs
[5] = biological target: mouse erythroid Band 3 protein on wild-type mouse RBCs (mouse) (UniProt P04919); assay: 32P-MSP119 on intact mouse RBCs in suspension; RBCs treated with neuraminidase, against untreated RBCs
[6] = biological target: human erythroid Band 3 protein (Anion Exchanger 1) on human RBCs (human) (UniProt P02730); assay: 32P-MSP119 on intact human RBCs in suspension; RBCs treated with chymotrypsin 10 min, against untreated RBCs
GST-MSP138 = assay: Solution-binding assay, GST-MSP138 on beads; design: species or system P. falciparum (FCB1 strain); details: 32P-labeled 5BC 21, 42, 84, 168 μM
Description: (§1) MSP138 (SEQ ID NO:33), MSP142 (SEQ ID NO:34), and MSP119 (SEQ ID NO:35) genes were amplified from a P. falciparum (FCB1 strain) cDNA library (J. B. Dame) by PCR using the following primers: 5′-[…] (SEQ ID NO: 14, MSP138, sense, 3121-3133, Xhol), 5′-[…] (SEQ ID NO:15, MSP138, antisense, 4200-4193, NotI), 5′-[…] (SEQ ID NO:16, MSP142, sense, 4201-4218, XhoI), 5′-[…] (SEQ ID NO:17, MSP142, antisense, 5334-5321 NotI), 5′-[…]: (SEQ ID NO:18, MSP119, sense, 4993-5009 BamHI), 5′-[…] (SEQ ID NO:19, MSP119, antisense, 5334-5318, EcoRI). Similar cDNA libraries as well as CDNA pools are available to the public from MR4, ATCC (www.malaria.atcc.org).
(§2) Primers: 5′-[…] […] (SEQ ID NO:26, 6AB, antisense, 2640-2620, EcoRI).

GST-MSP142 = biological target: T1, GST-MSP142 (Plasmodium falciparum, UniProt P04933); assay: Solution-binding assay, GST-MSP142 on beads; design: species or system P. falciparum (FCB1 strain)
T1 construct: amino acids 1264-1639; made in house; host or cells: E. coli DH5α (pGEX6P-2)
Description: as §1, §2

GST-5ABC = biological target: T2, GST-5ABC (Homo sapiens, UniProt P02730); assay: Native MSP1 binding to GST-5ABC beads; details: Triton X-100 parasite extract, 22-24 h at 4° C.; GST beads as control
T2 construct: The 5ABC (amino acid 720-761), 5BC (731-761), and 6AB (807-842) genes were amplified from a human reticulocyte cDNA library; made in house; host or cells: E. coli (pGEX-2TK)
T2 sequence (P02730 720-761): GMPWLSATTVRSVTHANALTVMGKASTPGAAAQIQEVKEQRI

RBCs = details: literature reports; cited from earlier work
[7] = biological target: T3, SV40 large T-antigen fused to GAL4 AD (pGADT7 vector), two-hybrid control (UniProt P03070 86-708); assay: yeast two-hybrid assay (negative control)
T3 construct: Kit control; also called pGADT7-T

[8] = biological target: T3, SV40 large T-antigen fused to GAL4 AD …; assay: yeast two-hybrid assay (positive control)
[9] = biological target: GST-MSP142 (P. falciparum FCB1 MSP1 42 kDa fragment as GST fusion protein) (Plasmodium falciparum (FCB1 strain)) [GST: P08515]; assay: solution-binding assay, 32P-labeled peptide on GST fusion beads
[10] = system: mouse RBCs fixed in methanol; details: GST-MSP142 1 μM, GST-MSP138 8 μM
Method: (§3) RBCs freshly collected into citrate phosphate dextrose buffer were washed (3×) and resuspended in RPMI (20% hematocrit). Thin smears of RBCs on glass slides were allowed to air-dry and fixed in methanol (20-30 sec). The slides were washed with PBS (1×), blocked with 10% fetal bovine serum (FBS) in PBS (pH 7.4) for 1.5 h at 37° C., and again washed with PBS (5×, 10 min each). Fixed cells were incubated with GST-MSP142 (1 μM), GST-MSP138 (8 μM), or GST (9 μM) for 3.5 h at 37° C. in 10% FBS. Slide samples were washed with PBS (5×), incubated with goat anti-GST antibody (1:1,000, Amersham Pharmacia Biotech), washed again (5×), and incubated with rabbit anti-goat FITC-conjugated antibody (1:60, Sigma-Aldrich, St. Louis, Mo.). For visualizing spectrin, fixed cells treated with 10% FBS were incubated with a rabbit antibody raised against human spectrin (Sigma-Aldrich) followed by goat anti-rabbit FITC-conjugated antibody. All dilutions of proteins and antibodies were made in 10% FBS except FITC-conjugated antibodies.
(§4) First, the above-described RBC binding assay was performed using ^32P-labeled MSP119 and intact Band 3 (−/−) mouse RBCs in suspension. […] In the second method, we carried out an indirect immunofluorescence assay (IFA) using wild-type human and mouse RBCs and Band 3 (−/−) mouse RBCs fixed in methanol.

[11] = system: human RBCs fixed in methanol; details: GST-MSP142 1 μM, GST-MSP138 8 μM; GST alone did not bind
Method: as §3, §4

[12] = biological target: GST-MSP138 (P. falciparum FCB1 MSP1 38 kDa fragment as GST fusion protein, C-terminal truncated forms) (Plasmodium falciparum (FCB1 strain)) [GST: P08515]; assay: solution-binding assay, 32P-labeled peptide on GST fusion beads
GST-MSP138 (P. falciparum FCB1 MSP1 38 kDa fragment as GST fusion protein, C-terminal truncated forms) (Plasmodium falciparum (FCB1 strain)) [GST: P08515], sequence (P08515 whole entry, the tested form may be a part): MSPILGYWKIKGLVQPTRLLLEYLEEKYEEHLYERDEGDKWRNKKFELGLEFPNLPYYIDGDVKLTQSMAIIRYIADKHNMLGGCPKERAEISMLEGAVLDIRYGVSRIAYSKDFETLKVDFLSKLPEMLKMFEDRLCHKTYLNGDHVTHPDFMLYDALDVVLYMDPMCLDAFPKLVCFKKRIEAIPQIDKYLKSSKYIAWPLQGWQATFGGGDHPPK

human erythroid Band 3 protein (Anion Exchanger 1) on human RBCs (human), sequence (P02730 whole entry, form in doubt): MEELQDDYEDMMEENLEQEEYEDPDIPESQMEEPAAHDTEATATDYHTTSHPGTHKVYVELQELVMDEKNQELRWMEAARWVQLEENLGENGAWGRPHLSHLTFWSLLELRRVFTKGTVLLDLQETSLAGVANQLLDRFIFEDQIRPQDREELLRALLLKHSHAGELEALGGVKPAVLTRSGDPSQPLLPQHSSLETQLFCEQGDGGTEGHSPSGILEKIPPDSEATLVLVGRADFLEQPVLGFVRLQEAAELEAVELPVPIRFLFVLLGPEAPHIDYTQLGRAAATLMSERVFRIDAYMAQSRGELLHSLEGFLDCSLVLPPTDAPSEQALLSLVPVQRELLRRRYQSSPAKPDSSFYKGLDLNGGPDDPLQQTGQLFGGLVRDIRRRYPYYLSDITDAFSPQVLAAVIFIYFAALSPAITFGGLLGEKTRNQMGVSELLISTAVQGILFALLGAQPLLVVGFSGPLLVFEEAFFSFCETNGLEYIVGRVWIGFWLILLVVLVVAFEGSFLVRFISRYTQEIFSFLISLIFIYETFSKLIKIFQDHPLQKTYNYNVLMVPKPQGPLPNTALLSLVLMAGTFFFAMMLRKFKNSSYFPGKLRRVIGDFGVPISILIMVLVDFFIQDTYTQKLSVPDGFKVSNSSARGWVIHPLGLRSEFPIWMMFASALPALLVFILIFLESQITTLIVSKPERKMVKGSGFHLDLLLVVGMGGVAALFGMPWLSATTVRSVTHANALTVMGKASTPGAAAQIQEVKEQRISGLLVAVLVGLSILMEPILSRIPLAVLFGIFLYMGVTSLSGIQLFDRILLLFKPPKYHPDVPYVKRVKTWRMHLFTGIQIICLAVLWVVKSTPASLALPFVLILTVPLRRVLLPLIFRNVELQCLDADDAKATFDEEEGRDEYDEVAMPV
mouse erythroid Band 3 protein on wild-type mouse RBCs (mouse), sequence (P04919 whole entry): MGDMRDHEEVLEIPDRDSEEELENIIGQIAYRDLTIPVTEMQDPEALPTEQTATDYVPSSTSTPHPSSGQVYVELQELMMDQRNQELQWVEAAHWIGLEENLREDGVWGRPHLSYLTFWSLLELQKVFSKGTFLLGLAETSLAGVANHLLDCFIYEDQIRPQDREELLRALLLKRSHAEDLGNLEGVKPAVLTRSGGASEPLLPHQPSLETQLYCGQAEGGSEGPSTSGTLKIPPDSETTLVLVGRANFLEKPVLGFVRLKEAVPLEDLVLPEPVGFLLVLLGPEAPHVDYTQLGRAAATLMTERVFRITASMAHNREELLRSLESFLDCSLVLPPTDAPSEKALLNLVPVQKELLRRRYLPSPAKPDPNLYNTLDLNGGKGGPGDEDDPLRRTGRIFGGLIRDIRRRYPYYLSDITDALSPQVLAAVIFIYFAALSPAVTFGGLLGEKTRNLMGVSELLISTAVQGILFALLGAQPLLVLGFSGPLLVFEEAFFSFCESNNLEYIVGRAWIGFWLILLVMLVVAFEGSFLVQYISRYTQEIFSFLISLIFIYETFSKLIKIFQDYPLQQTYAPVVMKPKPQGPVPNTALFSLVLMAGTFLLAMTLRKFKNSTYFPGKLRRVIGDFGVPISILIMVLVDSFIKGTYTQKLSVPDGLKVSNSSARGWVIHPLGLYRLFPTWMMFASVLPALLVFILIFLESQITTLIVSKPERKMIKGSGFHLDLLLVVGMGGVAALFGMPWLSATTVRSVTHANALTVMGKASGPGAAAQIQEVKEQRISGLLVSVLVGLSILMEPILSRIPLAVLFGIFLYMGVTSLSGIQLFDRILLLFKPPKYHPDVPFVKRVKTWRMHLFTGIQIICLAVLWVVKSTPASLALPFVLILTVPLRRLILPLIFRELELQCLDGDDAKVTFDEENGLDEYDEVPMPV
T3 sequence (P03070 86-708 limits assumed): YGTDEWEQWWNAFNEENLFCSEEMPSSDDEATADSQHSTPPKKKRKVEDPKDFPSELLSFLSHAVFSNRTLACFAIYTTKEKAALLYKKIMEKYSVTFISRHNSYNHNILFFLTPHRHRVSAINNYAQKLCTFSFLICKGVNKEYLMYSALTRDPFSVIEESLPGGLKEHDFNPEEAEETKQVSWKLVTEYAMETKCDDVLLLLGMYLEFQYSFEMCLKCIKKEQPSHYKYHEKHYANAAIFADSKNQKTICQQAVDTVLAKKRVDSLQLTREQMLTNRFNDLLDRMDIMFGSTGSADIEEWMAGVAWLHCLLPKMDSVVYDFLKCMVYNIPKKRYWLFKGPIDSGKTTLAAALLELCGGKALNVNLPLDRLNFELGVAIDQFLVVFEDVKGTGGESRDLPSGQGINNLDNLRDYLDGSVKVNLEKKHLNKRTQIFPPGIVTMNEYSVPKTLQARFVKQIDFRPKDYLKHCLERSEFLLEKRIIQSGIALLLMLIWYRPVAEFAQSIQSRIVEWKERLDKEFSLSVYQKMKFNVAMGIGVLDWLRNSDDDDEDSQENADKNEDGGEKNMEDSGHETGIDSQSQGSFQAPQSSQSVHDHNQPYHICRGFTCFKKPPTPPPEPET
T1 sequence (P04933 1264-1639): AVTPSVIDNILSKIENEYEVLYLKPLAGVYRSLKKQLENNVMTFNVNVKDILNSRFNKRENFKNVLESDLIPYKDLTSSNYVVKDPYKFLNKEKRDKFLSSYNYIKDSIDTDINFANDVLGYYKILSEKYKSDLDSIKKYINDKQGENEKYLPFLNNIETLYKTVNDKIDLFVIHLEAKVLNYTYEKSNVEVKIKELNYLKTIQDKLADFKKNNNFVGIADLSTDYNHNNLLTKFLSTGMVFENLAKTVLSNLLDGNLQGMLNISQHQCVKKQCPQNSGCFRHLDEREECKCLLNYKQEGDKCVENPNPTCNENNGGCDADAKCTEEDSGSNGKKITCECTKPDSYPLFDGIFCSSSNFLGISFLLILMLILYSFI
GST-MSP142 (P. falciparum FCB1 MSP1 42 kDa fragment as GST fusion protein) (Plasmodium falciparum (FCB1 strain)) [GST: P08515], sequence (P08515 whole entry, the tested form may be a part): as the sequence (P08515 whole entry, the tested form may be a part) above

32P-labeled MSP119 (P. falciparum FCB1 MSP1 19 kDa C-terminal fragment, GST removed with thrombin) (ligand)
reduction of radioactivity associated with Band 3 (-/-) mouse RBCs as compared to untreated wild-type mouse RBCs [1]: 72% | reduction in ability to bind MSP119 as compared to the untreated RBCs [2]: 41% | reduction in ability to bind MSP119 as compared to the untreated RBCs [3]: 37% | increase in ability to bind MSP119 as compared to the untreated RBCs [4]: 52% | increase in ability to bind MSP119 as compared to the untreated RBCs [5]: 51% | reduction in ability to bind MSP119 as compared to the untreated RBCs [6]: 30%

GMPWLSATTVRSVTHANALTVMGKASTPGAAAQIQEVKEQRI (not fully specified) [Peptide 5ABC, Recombinant human Band 3 peptide, amino acid 720-761, expressed as GST or GAL4 DNA-BD fusion]
binding to GST-MSP138 on beads (GST-MSP138): specifically bound | binding to GST-MSP142 on beads (GST-MSP142; 32P-labeled 5ABC 10, 20, 40, 80 μM): concentration-dependent manner | Kd (GST-MSP142; 32P-labeled peptide, pH 7.4, 25° C., 3.5 h): 36 µM

MSP1: P. falciparum merozoite surface protein-1, native full-length
binding of radiolabeled native parasite protein to GST-5ABC beads (GST-5ABC): bound specifically to the 5ABC domain | binding to RBCs (earlier studies) (RBCs): bound to RBCs in sialic acid-dependent manner

B1: Lamin C fused to GAL4 DNA-BD (pGBKT7 vector), two-hybrid control (other)
chain: MKLLSSIEQACDICRLKKLKCSKEKPKCAKCLKNNWECRYSPKTKRSPLTRAHLTEVESRLERLEQLFLLIFPREDLDMILKMDSLQDIKALLTGLFVQDNVNKDAVTDRLASVETDMPLTLRQHRISATSSSEESSNKGQRQLTVSSEEVVSREVSGIKAAYEAELGDARKTLDSVAKERARLQLELSKVREEFKELKARNTKKEGDLIAAQARLKDLEALLNSKEAALSTALSEKRTLEGELHDLRGQVAKLEAALGEAKKQLQDEMLRRVDAENRLQTMKEELDFQKNIYSEELRETKRRHETRLVEID
notes: Kit control
binding result [7]: no binding

B2: p53 fused to GAL4 DNA-BD (pGBKT7 vector), two-hybrid control (other)
chain: MKLLSSIEQACDICRLKKLKCSKEKPKCAKCLKNNWECRYSPKTKRSPLTRAHLTEVESRLERLEQLFLLIFPREDLDMILKMDSLQDIKALLTGLFVQDNVNKDAVTDRLASVETDMPLTLRQHRISATSSSEESSNKGQRQLTVSPVTETPGPVAPAPATPWPLSSFVPSQKTYQGNYGFHLGFLQSGTAKSVMCTYSPPLNKLFCQLAKTCPVQLWVSATPPAGSRVRAMAIYKKSQHMTEVVRRCPHHERCSDGDGLAPPQHLIRVEGNLYPEYLEDRQTFRHSVVVPYEPPEAGSEYTTIHYKYMCNSSCMGGMNRRPILTIITLEDSSGNLLGRDSFEVRVCACPGRDRRTEEENFRKKEVLCPELPPGSAKRALPTCTSASPPQKKKPLDGEYFTLKIRGRKRFEMFRELNEALELKDAHATEESGDSRAHSSYLKTKKGQSTSRHKKTMVKKVGPDSD
notes: Kit control; also called pGBKT7-53
binding result [8]: binds

GMPWLSATTVRSVTHANALTVMGKASTPGAAAQIQEVKEQRI (peptide, not shown: small tags and cut ends, modifications not checked) [32P-labeled 5ABC (recombinant human Band 3 amino acid 720-761, GST removed with thrombin)]
Kd [9]: 36 µM

B3: MSP142: 42 kDa proteolytic fragment of P. falciparum MSP1 (FCB1 strain) (protein)
chain: AISVTMDNILSGFENEYDVIYLKPLAGVYRSLKKQIEKNIFTFNLNLNDILNSRLKKRKYFLDVLESDLMQFKHISSNEYIIEDSFKLLNSEQKNTLLKSYKYIKESVENDIKFAQEGISYYEKVLAKYKDDLESIKKVIKEEKEKFPSSPPTTPPSPAKTDEQKKESKFLPFLTNIETLYNNLVNKIDDYLINLKAKINDCNVEKDEAHVKITKLSDLKAIDDKIDLFKNPYDFEAIKKLINDDTKKDMLGKLLSTGLVQNFPNTIISKLIEGKFQDMLNISQHQCVKKQCPENSGCFRHLDEREECKCLLNYKQEGDKCVENPNPTCNENNGGCDADATCTEEDSGSSRKKITCECTKPDSYPLFDGIFCS
binding of radiolabeled native parasite protein to GST-5ABC beads (GST-5ABC): bound specifically to the 5ABC domain | binding to Band 3 (−/−) mouse RBCs (IFA) [10]: neither GST-MSP142, GST-MSP138, nor GST alone bound | binding to wild-type mouse RBCs (IFA) ([10]; GST alone did not bind): bound | binding to wild-type human RBCs (IFA) [11]: bound

SVTHANALTVMGKASTPGAAAQIQEVKEQRI (peptide, not shown: small tags and cut ends, modifications not checked) [32P-labeled 5BC (recombinant human Band 3 amino acid 731-761, GST removed with thrombin)]
Kd [12]: 67 µM
